Measurements from US8247535B2, “Directed evolution of GRG31 EPSP synthase enzyme” (Athenix Corp., priority 2008, dated 2012).
Positions count from the first letter of the chain named. Numbers in names are those of the source.

What was measured:
GRG31 EPSP synthase [1] = assay: Extract prescreens of library clones at a few glyphosate and PEP concentrations; assay type: biochemical; conditions: for activity in glyphosate prescreen: 0, 1, and 2 mM glyphosate, among 31 resistant clones; for combination of glyphosate resistance and activity at low PEP concentrations: library 3, 0 and 0.2 mM glyphosate, 0, 20, and 50 μM PEP
Method: Library 1 was cloned into pAX3625 and 130,000 clones were plated onto plates containing 50 mM glyphosate. […] Extracts were prepared and assessed for glyphosate resistance by assaying activity in the presence of a small number of glyphosate concentrations (0, 1, and 2 mM glyphosate).
Extracts from these six clones were assayed for activity at a range of PEP concentrations (0, 20, 50, and 100 μM PEP).
One hundred and fifteen thousand (115,000) clones were plated onto plates containing 50 mM glyphosate and 384 glyphosate resistant clones were picked for sequencing. […] A Ki assessment of the unique clones was carried out by testing activity at 0 and 0.2 mM glyphosate. […] An assessment of the Km of protein encoded by these nine clones was performed by comparing activity at 0, 20, and 50 μM PEP.

GRG31 EPSP synthase [2] = assay: Kinetic analysis of GRG31 variants (Ki for glyphosate, Km for PEP, Vmax); assay type: biochemical; set-up: Vmax: unit not given here; conditions: for Ki: Ki for glyphosate, calculated from plot of Km(app) vs. glyphosate concentration; for Km: Km for PEP; for Vmax: unit not given
Method: GRG31 variants L3P2b11, L3P2c11 and L4e11, and L5e3 were characterized by enzymatic assays as described herein, and compared to the native GRG31 enzyme. For each enzyme the apparent Km (Km(app)) was determined at each of several glyphosate concentrations, and a plot of Km(app) vs. glyphosate concentration was used to calculate the Ki for each enzyme. The thermostability for each enzyme was assessed by incubating the enzyme at 37° C. for 16 hours, and then quantifying the enzymatic activity remaining (as Vmax) vs. control enzyme that was incubated at 4° C.

GRG31 EPSP synthase [3] = assay: Thermostability of purified GRG31 variant proteins (4 hrs at 37° C.); assay type: biochemical; conditions: in words
Method: GRG31 variants L3P2b11, L3P2c11 and L4e11, and L5e3 were characterized by enzymatic assays as described herein, and compared to the native GRG31 enzyme. For each enzyme the apparent Km (Km(app)) was determined at each of several glyphosate concentrations, and a plot of Km(app) vs. glyphosate concentration was used to calculate the Ki for each enzyme. […]
Three variants (6b2, 6e7, and the triple EK (N95S A206V E215K; SEQ ID NO:20)) were grown, their proteins purified, and the thermostability of the proteins analyzed in more detail.

GRG31 EPSP synthase [4] = assay type: biochemical; conditions: for thermostability at 37° C. compared with GRG31: survival of activity at 37° C., in words
Method: The thermostability of several variants of GRG31 was analyzed by measuring survival of activity at 37° C.

GRG36 [5] = conditions: for fold higher thermostability at 37° C. than wild-type GRG36: relative to wild-type GRG36
Method: Following induction, each GRG36 protein variant was purified by affinity chromatography to a cobalt resin (Novagen). The purified proteins were tested for enzymatic activity following heating for 0, 4 and 6 hours at 37° C.

GRG36 [6] = assay: Kinetic constants of GRG36 enzymes (Km, Ki, Vmax); assay type: biochemical; conditions: for Km: substrate phosphoenolpyruvate; for Ki: glyphosate, (−)x-intercept of Kobs vs. glyphosate concentration
Method: The syngrg36 DNA library was transformed into E. coli strain BL21*DE3 star (Invitrogen) for induction of protein expression. Following transformation, individual colonies were plated on 1×M63 medium containing 25 mM glyphosate to select for clones that had retained enzymatic activity and growth tolerance. Individual colonies were picked and arrayed into 384-well plates to create a mutagenized library for enzymatic activity screening. Two 384-well plates were created in this manner. Enzymatic activity screening was carried out as follows. Library clones were pinned into 96-well blocks containing LB medium and were grown to A600=0.6. IPTG was then added (0.5 mM) and the blocks were incubated overnight at 20° C. to induce protein expression. Next, protein extracts were prepared from individual cultures using POPCULTURE® reagent (Novagen) and the enzymatic activity was measured as disclosed in U.S. patent application Ser. No. 11/651,752, filed Jan. 10, 2007, herein incorporated by reference in its entirety. […] These 6 were selected for further characterization.
Additionally, enzymatic assays were carried out to calculate the kinetic constants for substrate binding affinity (Km), glyphosate binding (Ki) and enzymatic rate (Vmax). Briefly, each enzyme was titrated with the substrate phosphoenolpyruvate and the linear enzymatic rate was plotted versus the substrate concentration. This plot was fit to the Michaelis-Menton equation to calculate the substrate concentration that produced one-half of the maximal rate (Km), and the maximal rate obtained at saturating substrate was divided by the enzyme concentration to yield Vmax. Next, additional substrate titrations were carried out at various glyphosate concentrations, and the apparent binding constant at each glyphosate concentration (Kobs) was plotted against the glyphosate concentration to yield a straight line. The Ki was measured as (−)x-intercept.

B1: GRG31pm3b8: GRG31 variant I75→C; P77→N; M82→T, SEQ ID NO:10 (protein)
chain: MNQQVITLTHPSKKIQGTVQLTGSKSESNRALIIQSLSKGQVEIANLSEAADTVTLNRVLQIASDPKPGFNTIDCGNAGTATRFLTAYLNLVKGNFILTGTERMQQRPIGILVDAMKEIGADIHYDKKVGYPPLKIEGGLFQEKDRVKIKGNISSQYISALLLIAPALKKGLTLEIEGELTSRPYVSMTLDMLKSVGIQHEWKNNAIKIAPQAFEKQTIYVEPDWSAASYWYAIAALADANASIVLPGLRKNSLQGDIAIISIMEHFGVQSSFESDGLHLNKKVIGSDVSLFNFKECPDLAQTVVVVAAALKRDVSFTGLETLKIKETDRIAALQKEIAKFGAELIEDGDTYHLKTAQVYQPEEVTFDTYEDHRMAMAFAPLALVFDQIKIAEPQVVEKSYPDFWNHLQAQAFVIE
modifications: GRG31 variant (clone GRG31pm3b8)
- activity in glyphosate prescreen (GRG31 EPSP synthase [1]; extracts): best activity
- activity at low PEP concentrations (GRG31 EPSP synthase [1]; extracts, 0, 20, 50, and 100 μM PEP, among six clones): best activity at low PEP concentrations
- Ki (GRG31 EPSP synthase [2]): 116 µM

B2: GRG31pm3d3: GRG31 Q-loop library 1 variant, SEQ ID NO:12 (protein)
chain: B1 chain with G76D, N77A, Y88F
modifications: GRG31 variant (clone GRG31pm3b3)
- activity in glyphosate prescreen (GRG31 EPSP synthase [1]; extracts): best activity

B3: Triple EK: GRG31 variant N95S A206V E215K, SEQ ID NO:20 (protein)
chain: B1 chain with C75I, N77P, T82M, N95S, A206V, E215K
modifications: GRG31 variant (triple EK)
- Ki (GRG31 EPSP synthase [2]): 48.2 µM
- Km (GRG31 EPSP synthase [2]): 7.2 µM
- improvement in Km for PEP relative to GRG31 (GRG31 EPSP synthase [2]; relative to GRG31, in words): improved (lower)
- Vmax (GRG31 EPSP synthase [2]): 33
- thermostability compared to wild-type GRG31 (GRG31 EPSP synthase [3]): increased thermostability

B4: L3P2c11 + 6b2: GRG31 variant Y88→F; N95→S, A206→V, SEQ ID NO:25 (protein)
chain: B1 chain with C75I, N77P, T82M, Y88F, N95S, A206V
modifications: GRG31 variant (L3P2c11+6b2)
- t1/2 at 37° C. (GRG31 EPSP synthase [4]): 3.5 h
- thermostability at 37° C. compared with GRG31 (GRG31 EPSP synthase [4]): improved thermostability
- Ki (GRG31 EPSP synthase [2]): 405 µM
- Km (GRG31 EPSP synthase [2]): 7.9 µM
- Vmax improvement over the GRG31(L3P2c11) protein (GRG31 EPSP synthase [2]; relative to GRG31(L3P2c11), in words): about four to five-fold
- Vmax relative to GRG31 (GRG31 EPSP synthase [2]; relative to GRG31, in words): approximately equal to that of GRG31
- improvement in Ki for glyphosate relative to GRG31 (GRG31 EPSP synthase [2]; relative to GRG31, in words): more than four-fold
- improvement in Km for PEP relative to GRG31 (GRG31 EPSP synthase [2]; relative to GRG31, in words): approximately two-fold
- Vmax (GRG31 EPSP synthase [2]): 23.4

B5: L3P2b11: GRG31 variant P77→Q; A81→S; M82→L; Y88→F, SEQ ID NO:13 (protein)
chain: B1 chain with C75I, N77Q, A81S, T82L, Y88F
modifications: GRG31 variant (clone L3P2b11)
- combination of glyphosate resistance and activity at low PEP concentrations (GRG31 EPSP synthase [1]): best combination of glyphosate resistance and activity at low PEP concentrations
- Ki (GRG31 EPSP synthase [2]): 983 µM
- Km (GRG31 EPSP synthase [2]): 11 µM
- improvement in Ki for glyphosate relative to GRG31 (GRG31 EPSP synthase [2]; relative to GRG31, in words): improved
- Vmax (GRG31 EPSP synthase [2]): 5.7

B6: L3P2c11: GRG31 variant Y88→F, SEQ ID NO:14 (protein)
chain: B1 chain with C75I, N77P, T82M, Y88F
modifications: GRG31 variant (clone L3P2c11)
- combination of glyphosate resistance and activity at low PEP concentrations (GRG31 EPSP synthase [1]): best combination of glyphosate resistance and activity at low PEP concentrations
- Ki (GRG31 EPSP synthase [2]): 715 µM
- Km (GRG31 EPSP synthase [2]): 39.6 µM
- improvement in Ki for glyphosate relative to GRG31 (GRG31 EPSP synthase [2]; relative to GRG31, in words): improved
- Vmax (GRG31 EPSP synthase [2]): 5.3

B7: L5e3: GRG31 variant P77→T, SEQ ID NO:17 (protein)
chain: B1 chain with C75I, N77T, T82M
modifications: GRG31 variant (clone L5e3)
- t1/2 at 37° C. (GRG31 EPSP synthase [4]): 10.8 h
- thermostability at 37° C. compared with GRG31 (GRG31 EPSP synthase [4]): improved thermostability
- Ki (GRG31 EPSP synthase [2]): 507 µM
- Km (GRG31 EPSP synthase [2]): 11.4 µM
- Vmax (GRG31 EPSP synthase [2]): 3.6

B8: L3P2c11 + triple EK: GRG31 variant Y88→F; N95→S, A206→V; E215→K, SEQ ID NO:23 (protein)
chain: B1 chain with C75I, N77P, T82M, Y88F, N95S, A206V, E215K
modifications: GRG31 variant (L3P2c11+triple EK)
- t1/2 at 37° C. (GRG31 EPSP synthase [4]): 2.7 h
- thermostability at 37° C. compared with GRG31 (GRG31 EPSP synthase [4]): thermostability equivalent to GRG31
- Ki (GRG31 EPSP synthase [2]): 298 µM
- Km (GRG31 EPSP synthase [2]): 12.6 µM
- Vmax (GRG31 EPSP synthase [2]): 14.4

B9: GRG36(ace7): GRG36 protein variant, SEQ ID NO:27, encoded by syngrg36(ace7) (protein)
chain: MKNQNFDAKARSPWTPLKGVNKISVSPSKGRINGTVTIPGSKSLTNRALIISSLASGKSKVQGILKSDDSFWCLDSLKKLGVNVKIQGDIAFIEGNGGKWESGDLYIGAAGTIARFLPGALAVSGTGIWELEASKSMSKRPISPQVDALKELGAEITYLSDQGYYPLLVKGKQLNGGEVELSGRISSQFISGLLIASPYLNDPIKINIKDHIVQHSYVLLTLELMKKFGAKVKYDSSLKEIVVYPSKYTPQDINLEADVSTACYFLALAAVTNGKVQIDNLTYETKQPDIKMVDILERMGCKVTRGSSFIEIEGVSQLKGGFEISMREMSDQVLTLAAIAPFADEPITIKDVEHIRHHESNRISVLVDSLSRLGIIVEEFKDGLKVYPGNPKATLLDTHDDHRVAMALSLIGSRVEGIQINDPGCVSKTCPQYFELLEKLGLNIIKH
modifications: GRG36 variant (GRG36(ace7))
- Half-life at 37° C. (GRG36 [5]): 18.8 h
- fold higher thermostability at 37° C. than wild-type GRG36 (GRG36 [5]): 7.5 fold
- Vmax (GRG36 [6]): 1.8 nmol/min/µg
- activity at 1 mM glyphosate compared with GRG36 (GRG36 [6]; 1 mM glyphosate): very similar activity
- Km (GRG36 [6]): 9.8 µM

B10: GRG36: wild-type GRG36 EPSP synthase, SEQ ID NO:4 (protein)
chain: B9 chain with I90T, Q145L
modifications: derived from organism isolated from soil
- Half-life at 37° C. (GRG36 [5]): 2.5 h
- Vmax (GRG36 [6]): 8 nmol/min/µg
- Ki (GRG36 [6]): 421 µM
- Km (GRG36 [6]): 6.3 µM

B11: GRG36(ace8): GRG36 protein variant, SEQ ID NO:28, encoded by syngrg36(ace8) (protein)
chain: B9 chain with I90T, Q145L, K350T, L410M
modifications: GRG36 variant (GRG36(ace8))
- Half-life at 37° C. (GRG36 [5]): 7.3 h
- fold higher thermostability at 37° C. than wild-type GRG36 (GRG36 [5]): 2.5 fold
- Vmax (GRG36 [6]): 6.8 nmol/min/µg
- Ki (GRG36 [6]): 435 µM
- Km (GRG36 [6]): 11 µM
